Here are results for 17 molecules from patent US20260008852A1 (CRYSTAL BIOSCIENCE, published 2026).

The chains are these.
T1: B7-H3 on CHO-K1 cells stably transfected with B7-H3 (GenScript #M00536) (UniProt Q5ZPR3 29-534, limits assumed)
T1 sequence (looked up): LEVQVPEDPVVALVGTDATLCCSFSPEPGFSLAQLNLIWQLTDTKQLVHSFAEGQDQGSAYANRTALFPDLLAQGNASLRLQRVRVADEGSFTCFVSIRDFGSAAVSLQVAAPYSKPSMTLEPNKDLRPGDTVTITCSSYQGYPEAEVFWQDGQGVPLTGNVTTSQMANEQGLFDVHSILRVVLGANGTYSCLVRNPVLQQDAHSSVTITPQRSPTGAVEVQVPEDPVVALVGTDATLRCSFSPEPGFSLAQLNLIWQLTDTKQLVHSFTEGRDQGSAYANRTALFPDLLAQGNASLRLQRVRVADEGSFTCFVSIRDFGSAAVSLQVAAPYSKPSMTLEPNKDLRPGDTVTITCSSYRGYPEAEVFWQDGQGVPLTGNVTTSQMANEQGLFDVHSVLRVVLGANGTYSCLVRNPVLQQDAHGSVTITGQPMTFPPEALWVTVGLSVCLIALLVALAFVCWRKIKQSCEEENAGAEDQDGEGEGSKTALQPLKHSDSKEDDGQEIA

T2: his-tagged B7-H3 (UniProt Q5ZPR3-2 29-245, limits assumed)
T2 construct: also called CD276; not shown: His tag
T2 sequence (looked up): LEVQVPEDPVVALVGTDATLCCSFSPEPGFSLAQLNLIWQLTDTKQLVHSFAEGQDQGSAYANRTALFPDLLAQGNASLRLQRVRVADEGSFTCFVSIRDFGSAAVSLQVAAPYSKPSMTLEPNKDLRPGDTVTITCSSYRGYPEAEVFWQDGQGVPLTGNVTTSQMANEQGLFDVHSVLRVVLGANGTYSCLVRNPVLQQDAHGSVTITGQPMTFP

B1: 40511p1.1.D6 IgG (antibody, V domains shown)
VH: DVQLVESGGGVVRPGESLTLSCAASGFTINSYAVSWVRQAPGEGLEWVSGISGSGVRYYADSVKGRFTISRDNSNNTLYLQMNSLRAEDTAVYYCARSNKVTWNNFFDYWGLGTLVTVSS
VL: EVVLTQSPGTLTLSPGERATLSCRASRSILTSLAWYQQKPGQAPRLLIYNTVTRATGIPARFSGSGSGTEFTLTINSLQSEDFAVYYCQQYYDWPPLTFGGGTKVEIK
B2: 40511p1.1.G3 IgG (antibody, V domains shown)
VH: DVQLVESGGGVVRPGESLTLSCAASGFTINSYAVSWVRQAPGEGLEWVSGISGSGVRYYADSVKGRFTISRDDSNNTLYLQMNSLRAEDTAVYYCARSNKVTWNNFFDYWGLGTLVTVSS
VL: EVVLTQSPGTLTLSPGERATLSCRASRSILTSLAWYQQKPGQAPRLLIYNTVTRATGIPARFSGSGSGTEFTLTINSLQSEDFAVYYCQQYYDWPPLTFGGGTKVEIK
B3: 40633p1.2.E5 IgG (antibody, V domains shown)
VH: EVQLLESGGGLVQPGGSLRLSCAASGFTFDGYGMSWVRQAPGKGLEWVSAISGNSGSIYYADSVKGRFTISRDNSKNTLYLQMNSLRAEDTAAYYCAKEKWKHFIYYGMDVWGQGTTVTVSS
VL: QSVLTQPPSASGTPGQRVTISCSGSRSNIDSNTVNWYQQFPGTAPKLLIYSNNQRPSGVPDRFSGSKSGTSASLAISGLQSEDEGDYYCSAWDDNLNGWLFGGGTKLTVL
B4: 40633p1.2.E1 IgG (antibody, V domains shown)
VH: EVQLLESGRGLVQPGGSLRLSCAASGFTVSYYGMSWVRQAPGKGLEWVSVIKQDGSEEYYADSVKGRFTISRDNSKNTLYLQMNSLRAEDTAVYYCARHWNDYSNGMNVWGQGTTVTVSS
VL: QSVLTQPPSASGTPGQRVTISCSGSTSNVGDRYVYWYQQLPGTAPKLLIYLDDQRPSGVPDRFSGSKSGTSASLAISGLQSEDEADYYCASWDASLNGWVFGGGTKLTVL
B5: 40633p1.2.F3 IgG (antibody, V domains shown)
VH: EVQLLESGGGLVQPGGSLRLSCAASGFTVSYYGMSWVRQAPGKGLEWVSVIKQDGSEEYYADSVKGRFTISRDNSKNTLYLQMNSLRAEDTAVYYCARHWNDYSNGMNVWGQGTTVTVSS
VL: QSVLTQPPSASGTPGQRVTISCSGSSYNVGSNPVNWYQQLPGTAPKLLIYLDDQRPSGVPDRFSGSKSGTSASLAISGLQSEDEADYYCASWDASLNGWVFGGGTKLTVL
B6: 40511p1.1.A1 IgG (antibody, V domains shown)
VH: DVQLVESGGGVVRPGESLRLSCAASGFTFSNYAMNWVRQAPGEGLEWVSRINYKGYNITYYADSVKGRFTISRDNSKNTLYLQMNSLRAEDTAVYYCAKSGSNSNNFFDYWGLGTLVTVSS
VL: EIVLTQSPGTLSVSPGERATLSCRASQSVNSKLAWYQQRPGQAPRLLIYDASSRATGIPDRFSGSGSGTDFTLTISRLEPEDFAVYYCQQYKNWPPLTFGGGTKVEIK
B7: 40511p1.1.H5 IgG (antibody, V domains shown)
VH: DVQLVESGGGVVRPGESLRLSCAASGFTFSNYAMNWVRQAPGEGLEWVSRINYKGYNITYYADSVKGRFTISRDNSKNTLYLQMNSLRAEDTAVYYCAKSGSNSNNFFDYWGLGTLVTVSS
VL: EIVLTQSPGTLSLSPGERATLSCRASQSIRSDLAWYQQKPGQAPRLLIYGAASRATGIPARFSGSGSGTEFTLTISSLQSGDFAVYYCQQYNSWPPLTFGGGTKVEIK
B8: 40511p1.1.G1 IgG (antibody, V domains shown)
VH: DVQLVESGGGVVRPGESLRLSCAASGFTFSSYAESWVRQAPGEGLEWVSIISGSGGNTFYADSVKGRFTISRDNSKNTLYLQMNSLRAEDTAVYYCARFAYGFFDYWGLGTLVTVSS
VL: EIVLTQSPGTLSVSPGEGATLSCRASQTVGSKLAWYQQKPGQPPSLLIYDASTRATGIPDRFSGSGSGTDFTLTISSLQSEDFAVYYCQQYRNWPPLTFGGGTKVEIK
B9: 40511p1.2.A12 IgG (antibody, V domains shown)
VH: DVQLVESGGGVVRPGESLRLSCAASGFTFSSYAESWVRQAPGEGLEWVSIISGSGGNTFYADSVKGRFTISRDNSKNTLYLQMNSLRAEDTAVYYCARFAYGFFDYWGLGTLVTVSS
VL: EIVLTQSPGTLSVSPGERATLSCRASQTVGSKLAWYQQKPGQPPSLLIYDASTRATGIPDRFSGSGSGTDFTLTISSLQSEDFAVYYCQQYRNWPPLTFGGGTKVEIK
B10: 40633p1.2.E11 scFv-Fc (scFv, V domains shown)
VH: EVQLLESGGGLVQPGGSLRLSCAASGFSFSNYDMSWVRQAPGKGLEWVAGIRSGSRTYYADSVKGRFTISRDNSKNTLYLQMNSLRAEDTATYYCGRYFNMDVWGQGTTVTVSS
VL: QSVLTQPPSASGTPGQRVTISCSGSTFNIGTNLVHWYQQLPGTAPKLLIYLTDRRPPGVPDRFSGSKSGTSASLAISGLQSEDEANYYCATWDDSLNSFLFGGGTKLTVL
B11: Benchmark MGA-271 (antibody, V domains shown)
VH: EVQLVESGGGLVQPGGSLRLSCAASGFTFSSFGMHWVRQAPGKGLEWVAYISSDSSAIYYADTVKGRFTISRDNAKNSLYLQMNSLRDEDTAVYYCGRGRENIYYGSRLDYWGQGTTVTVSS
VL: DIQLTQSPSFLSASVGDRVTITCKASQNVDTNVAWYQQKPGKAPKALIYSASYRYSGVPSRFSGSGSGTDFTLTISSLQPEDFATYYCQQYNNYPFTFGQGTKLEIK
B12: 40633p1.2.A8 scFv-Fc (scFv, V domains shown)
VH: EVQLLESGGGLLQPGGSLRLSCAASGFSFSSYGMHWVRQAPGKGLEWVAAINSDGSRIYYADSVKGRFTISRDNSKNTLYLQMNSLRAEDTAVYYCTKYYYHYAMDVWGQGTTVTVSS
VL: QSVLTQPPSASGTPGQRVTISCSGSRSDIGATTVNWYQQLPGTAPKLLIYQSHLRPSGVPDRFSGSKSGTSASLAISGLQSEDEADYYCASWDASLNTWVFGGGTKLTVL
B13: 40633p1.2.G9 scFv-Fc (scFv, V domains shown)
VH: EVQLLESGGGLLQPGGSLRLSCAASGFSFSSYGMHWVRQAPGKGLEWVAAINSDGSRIYYADSVEGRFTISRDNSKNTLYLQMNSLRAEDTAVYYCTKYYYHYAMDVWGQGTTVTVSS
VL: QSVLTQPPSASGTPGQRVTISCSGSRSDIGATTVNWYQQLPGTAPKLLIYQSHLRPSGVPDRFSGSKSGTSASLAISGLQSEDEADYYCASWDASLNTWVFGGGTKLTVL
B14: 40633p1.1.H11 scFv-Fc (scFv, V domains shown)
VH: EVQLLESGGGLVQPGGSLRLSCAASGFTFSSYPMTWVRQAPGKGLEWVADINSGGGTTLYADAVKGRFTISRDNSKNIVYLQMNSLRGEDTAVYYCAKHLDYYSYGMDVWGQGTTVTVSS
VL: QSVLTQPPSASGTPGQRVTISCSGVTSKIGSKYVHWYQQLPGTAPKLLIYRNFERPSGVPDRFSGSTSGTSASLAISGLQSEDEADYYCATWEGALNGWVFGGGTKLTVL
notes: Tested as scFv-Fc supernatant
B15: 40633p1.2.E5 scFv-Fc (scFv, V domains shown)
VH: EVQLLESGGGLVQPGGSLRLSCAASGFTFDGYGMSWVRQAPGKGLEWVSAISGNSGSIYYADSVKGRFTISRDNSKNTLYLQMNSLRAEDTAAYYCAKEKWKHFIYYGMDVWGQGTTVTVSS
VL: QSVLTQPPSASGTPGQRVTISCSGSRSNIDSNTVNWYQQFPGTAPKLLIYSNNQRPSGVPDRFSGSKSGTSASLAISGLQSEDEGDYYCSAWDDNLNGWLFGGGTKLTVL
notes: Tested as scFv-Fc supernatant
B16: 40633p1.2.D1 scFv-Fc (scFv, V domains shown)
VH: EVQLLESGGGLVQPGGSLRLSCAASGFTFDVYGMSWVRQAPGKGLEWVSAINWNGGSTYYADSVKGRFTISRDNSENTLYLQMNSLRAEDTAVYYCAKEKWKHFIYYGMDVWGQGTTVTVSS
VL: QSVLTQPASASGTPGQTVSISCSGSSSNIDSNTANWYQQLPGTAPKLLIYSNNQRPSGVPDRFSGSKSDTSASLAISGLQSEDEGDYYCSAWDDNLNGWLFGGGTKLTVL
notes: Tested as scFv-Fc supernatant
B17: 40633p1.2.D11 scFv-Fc (scFv, V domains shown)
VH: EVQLESGGGLVQPGGSLRLSCAASGFTVSYYGMSWVRQAPGKGLEWVSAIKQDGSEKYYADSVKGRFTISRDNSKNTLYLQMNSLRAEDTAVYYCARHWNDYSNAMNVWGQGTTVTVSS
VL: QSVLTQPPSASGTPGQRVTISCSGSTSNIAIDFVNWYQQLPGTAPKLLIYTIDQRPSGVPDRFSGSKSGTSASLAISGLQSEDEAVYYCASWDASLNGWVFGRGTKLTVL
notes: Tested as scFv-Fc supernatant

One experiment addresses T1, B7-H3 on CHO-K1 cells stably …. The experiment can be described thus: cell-based or functional assay.
On to B1, for which the “ADCC reporter assay, EC50 Value, CHOK1/B7-H3 cells” value (“ADCC reporter assay, EC50 Value” below) was found to be 14 ng/mL and the “ADCC reporter assay, Max RLU, CHOK1/B7-H3 cells” value (“ADCC reporter assay, Max RLU” for short) came out at 751000 RLU.

In the case of B2, the “ADCC reporter assay, EC50 Value” value is 14.1 ng/mL and the “ADCC reporter assay, Max RLU” value amounted to 723000 RLU.

B3: the “ADCC reporter assay, EC50 Value” value worked out at 26.8 ng/mL and the “ADCC reporter assay, Max RLU” value turned out to be 669000 RLU.

As to B4, the “ADCC reporter assay, EC50 Value” value came out at 31 ng/mL and the “ADCC reporter assay, Max RLU” value stood at 725000 RLU.

Regarding B5, the “ADCC reporter assay, EC50 Value” value is 30 ng/mL and the “ADCC reporter assay, Max RLU” value is 700000 RLU.

Regarding B6, the “ADCC reporter assay, EC50 Value” value was 12.4 ng/mL and the “ADCC reporter assay, Max RLU” value was 820000 RLU.

With B7, the “ADCC reporter assay, EC50 Value” value came out at 16.4 ng/mL and the “ADCC reporter assay, Max RLU” value came out at 762000 RLU.

For B8, the “ADCC reporter assay, EC50 Value” value came to 41.6 ng/mL and the “ADCC reporter assay, Max RLU” value worked out at 679000 RLU.

As to B9, the “ADCC reporter assay, EC50 Value” value stood at 35.2 ng/mL and the “ADCC reporter assay, Max RLU” value worked out at 598000 RLU.

The target in the next experiment is T2, his-tagged B7-H3. The experiment can be described thus: SPR, Carterra LSA; binder captured by anti-human Fc, his-tagged B7-H3 injected. Here is the method: Binding affinities of anti-B7-H3 antibodies to B7-H3 were measured by Surface Plasmon Resonance (SPR) on a Carterra LSA instrument. Goat anti-human Fc antibody was amine coupled to a HC30M chip. ScFv-Fc supernatants were diluted 30-fold with HBSTE and were captured by the anti-human Fc coupled HC30M chip. A 1:2 dilution series of his-tagged B7-H3, starting at 400 nM, was injected onto the chip for binding. Data was analyzed using the Carterra TM Kinetics software.
(In general: SPR reads the build-up and loss of mass on a sensor chip optically.)
As to B10, the Kd turned out to be 1.11 nM and the kon was found to be 134000 M⁻¹ s⁻¹.

B11 showed a Kd of 164 nM, a koff of 0.01 s⁻¹ and an on-rate (kon) of 72000 M⁻¹ s⁻¹.

Molecule B12 displayed a Kd of 12.5 nM and an on-rate (kon) of 304000 M⁻¹ s⁻¹.

As for B13, the Kd came out at 10.8 nM and the kon was determined as 325000 M⁻¹ s⁻¹.

Molecule B14 came in with a Kd of 0.175 nM and a kon of 113000 M⁻¹ s⁻¹.

The molecule B15 displayed a dissociation constant (Kd) of 40.2 nM, an off-rate (koff) of 0.02 s⁻¹ and a kon of 389000 M⁻¹ s⁻¹.

In turn, B16 yielded a Kd of 39.8 nM, a dissociation rate constant (koff) of 0.02 s⁻¹ and a kon of 392000 M⁻¹ s⁻¹.

Molecule B17 had a Kd of 307 nM, a koff of 0.07 s⁻¹ and a kon of 241000 M⁻¹ s⁻¹.

Usually Kd stands for the concentration at which binding is half-saturated. Broadly, the kon is a measure of how fast the partners come together. Low values mean slower complex formation, high ones faster complex formation. By koff is commonly meant the rate constant with which the complex falls apart. The low end stands for slow dissociation, the high end for fast dissociation.
